Experiments:
[1] = tested on: platelet-rich-plasma (PRP); assay: Ristocetin-induced aggregation of platelet-rich-plasma after scFv preincubation; type: cell-based, human
Experimental: The effect of Y1 (scFv) on aggregation of platelet-rich-plasma (PRP) was tested at various concentrations of Y1. PRP was pre-incubated with Y1 scFv, Y17 scFv, or a control sTM-1cFv for 4 min at 37° C. before being exposed to ristocetin, an inducer of platelet agglutination and aggregation. A reversible inhibitory effect was observed when scFv was added to PRP prior to the addition of ristocetin, and it was dose dependent.
Blood was collected into a tube containing 3.8% sodium citrate. Platelet-rich plasma was prepared by centrifugation at 250×g for 10 minutes.
(§1) For platelet aggregation studies, platelet rich plasma (PRP) and washed platelets were stirred at 500 rpm at 37° C. in whole blood Lumiaggregometer (Chronolog, Havertown, Pa.). The difference in light transmission through the platelet suspension and suspending medium was taken as 100% aggregation. The effect of Y1 on platelet aggregation was evaluated by addition of different concentration of Y1 before the addition of agonist, and the effect was recorded for four minutes.

platelet GPIbα [2] = target: T1, platelet GPIbα (Homo sapiens, UniProt P07359); assay: Western blot/FACS of endoprotease-cleaved platelet GPIbα and glycocalicin; type: binding
T1 construct: endogenous in cells; host or cells: washed human platelets (blood-bank platelet concentrate)
Description: (§2) Immunoblotting and endoprotease cleavage techniques were used to identify the epitope for Y1 on the surface membrane of platelets.
(§3) The enzyme O-Sialoglycoprotein endoprotease from Pasteurella haemolytica (Cedarlan CLE 100) selectively cleaves human platelet GPIb and specifically cleaves only proteins containing sialylated, O-linked glycans. […] This enzyme has been reported to cleave GPIb, which is heavily O-glycosylated, but not GPIIb-IIIa or other receptors on platelets. GPIbα was digested with O-Sialoglycoprotein endoprotease in order to further establish the binding of Y1 to the molecule.
(§4) Mocarhagin [Sigma L4515a] is a cobra venom metalloproteinase that cleaves platelet GPIbα specifically at a single site between residues glu-282 and asp-283, thereby generating two stable products: a ˜45-kDa N-terminal fragment (His1-Glu282), which is released into the supernatant, and a membrane-bound ˜95 kDa C-terminal fragment.
(§5) Cathepsin G (Sigma C4428), a neutrophil serine protease, cleaves glycocalicin at a first cleavage site between residues Leu-275 and Tyr-276 and at a second cleavage site between residues Val-296 and Lys-297. Cathepsin G treatment of glycocalicin generates two N-terminal fragments: a small N-terminal 42 kDa fragment (His1-Leu275), a large N-terminal 45 kDa N-terminal fragment (His1-Val-296), and corresponding ˜95 kDa C-terminal fragments. (FIG. 1).
(§6) For mocarhagin digestion, 10^8 washed platelets in TS buffer (0.01 M Tris, 0.15 M sodium chloride, pH 7.4) containing 1 mM calcium chloride were treated with 12 μg/ml mocarhagin (final concentration) for 1 hour at 22° C. and digestion was stopped by adding EDTA to 0.01 M.
(§7) 10^6 platelets in 0.1 M Tris buffer pH 7.4 containing 0.2% albumin and protease inhibitors (10 μM leupeptin, 0.24 mM PMSF) was incubated with 0.14 mg/ml O-Sialoglycoprotein endoprotease (final concentration) for 45 min at 37° C. and digestion was stopped by adding sample buffer and boiling. The sample buffer used contained 3% SDS, 12% glycerol, 50 mM Tris HCl, 2% β-mercaptoethanol, and 0.03% bromphenol blue.
(§8) For mocarhagin digestion, glycocalicin in TS buffer containing 1 mM calcium chloride was incubated with 10 μg/ml mocarhagin (final concentration) for 1 hour at 22° C. and digestion was stopped by adding EDTA to 0.01 M.
(§9) For cathepsin G digestion, glycocalicin in TS buffer containing 1 mM calcium chloride was incubated with 3.4 μg/ml cathepsin G (final concentration) for 4 hour at 22° C. and digestion was stopped by adding PMSF to 1 mM.

platelet GPIbα [3] = assay: as above; type: binding, human; conditions: immunoblots and FACS
Description: as §2, §3, §4, §5, §6, §7, §8, §9

washed platelets = assay: Ristocetin-induced agglutination of washed platelets after scFv preincubation; type: cell-based, human
Experimental: Aggregation is determined in PRP due to the presence of thrombotic agents, while agglutination is determined in washed platelets. The effect of Y1 (scFv) on agglutination of washed platelets was tested at various concentrations of Y1. Platelets were pre-incubated with Y1 scFv, Y17 scFv, Y16-scFv, or a control TM-1 scFv for 4 min at 37° C. before being exposed to ristocetin, an inducer of platelet agglutination and aggregation.
Platelet concentrate in acid-citrate-dextrose (ACD) was obtained from a blood bank, platelets were isolated, washed once in buffer containing ACD and saline in a ratio of 1:7. The platelets were centrifuged at 800 g for 10 min after each wash and were resuspended in Tyrodes solution (2 mM MgCl2, 137 mM NaCl, 2.68 mM KCl, 3 mM NaH2PO4, 0.1% glucose, 5 mM Hepes and 0.35% albumin, pH 7.35) and count the number of cells.
as §1
The effect of Y17-scFv on vWF-dependent agglutination of platelets was tested at different concentrations of Y17.

[4] = target: T2, GPIb (glycocalicin) derived from platelets (Homo sapiens, UniProt P07359); assay: ELISA to GC (glycocalicin), monomer versus dimer; type: binding
T2 construct: glycocalicin (soluble, extracellular fragment of GPIbα); from tissue; host or cells: human platelets
Experimental: An ELISA assay was performed to ascertain the differences in binding between the monomer (the Y1 scFv-also known as Y1-kak) and the dimer Y1-cys-kak (the cysteine dimer) for antigen GPIb (glycocalicin) derived from platelets. A polyclonal anti single chain antibody and/or a novel polyclonal anti-VL (derived from rabbits) and anti-rabbit HRP, were used to detect the binding to GPIb. […] For instance, to reach 0.8 OD units 12.8 μg/ml of monomer was used compared to only 0.1 μg/ml of dimer.
100 ml of purified glycocalicin was incubated in a 96 flat well maxisorp plates, overnight at 4 degrees celsius. The plate was washed with PBST (PBS+0.05% tween) 3 times, then […] of PBST-milk (PBST+2% Non fat milk), for 1 hr at room temperature. The plate was washed with PBST, and the monomer or dimer (100 ml) was added in PBST-milk at different concentrations for 1 hr at room temp. Then the plate was washed and anti-VL polyclonal (derived from immunized rabbits with VL derived from Y1) (1:100 diluted in PBST-milk) was added for an hour. The plate was washed and anti-rabbit HRP was added for an additional hour. The plate was washed 5 times and 100 μl TMB substrate was added for approximately 15 minutes then 100 μl of 0.5H2SO4 was added to stop the reaction. The optical density of the plate was measured at 450 nm in an ELISA reader.

| Molecule | effect on ristocetin-induced platelet aggregation in PRP (in words) ([1]; concentration not given) | % inhibition ([1]; scFv 38 μg/ml, PRP, ristocetin) | % aggregation ([1]; scFv 38 μg/ml, PRP, ristocetin = 100%) | binding to cathepsin G fragments of glycocalicin (platelet GPIbα [2]; Western blot) | binding after mocarhagin treatment of washed platelets (platelet GPIbα [2]; Western blot of platelet lysates) | binding to washed platelets after O-Sialoglycoprotein endoprotease (platelet GPIbα [3]) | effect on vWF-dependent platelet agglutination in washed platelets induced by ristocetin (in words) (washed platelets; final concentration of 10, 25 or 50 μg/ml) | % inhibition (washed platelets; scFv 25 μg/ml, washed platelets, ristocetin) | % agglutination (washed platelets; scFv 25 μg/ml, washed platelets, ristocetin = 100%) | activity relative to the monomer [4] | concentration used to reach 0.8 OD units [4] |
| --- | --- | --- | --- | --- | --- | --- | --- | --- | --- | --- | --- |
| Y17 scFv: second human scFv clone selected on platelets; SEQ ID NO: 203, heavy chain CDR3 SEQ ID NO: 20 (protein, listed as Homo sapiens) scFv: MKYLLPTAAAGLLLLAAQPAMAEVQLVESGGGVVRPGGSLRLSCAASGFTFDDYGMSWVRQAPGKGLEWVSGINWNGGSTGYADSVKGRFTISRDNAKNSLYLQMNSLRAEDTAVYYCARLTHPYFWGQGTLVTVSRGGGGSGGGGSGGGGSSELTQDPAVSVALGQTVRITCQGDSLRSYYASWYQQKPGQAPVLVIYGKNNRPSGIPDRFSGSSSGNTASLTITGAQAEDEADYYCNSRDSSGNHVVFGGGTKLTVLGAAAEQKLISEEDLNGAA | did not inhibit | 0% | 100% | bound to the larger fragment (His1-Val-296), but not to the smaller fragment (His1-Leu275) | binding of Y17 to the N-terminal 45 kDa tryptic fragment | abolishes binding | did not inhibit | 15% | 85% | – | – |
| Y1-cys-kak: Y1 scFv with cysteine and lysine-alanine-lysine at the carboxyl end, forms a dimer; SEQ ID NO: 212 (protein) scFv: MEVQLVESGGGVVRPGGSLRLSCAASGFTFDDYGMSWVRQAPGKGLEWVSGINWNGGSTGYADSVKGRFTISRDNAKNSLYLQMNSLRAEDTAVYYCARMRAPVIWGQGTLVTVSRGGGGSGGGGSGGGGSSELTQDPAVSVALGQTVRITCQGDSLRSYYASWYQQKPGQAPVLVIYGKNNRPSGIPDRFSGSSSGNTASLTITGAQAEDEADYYCNSRDSSGNHVVFGGGTKLTVLGGGGCKAK | – | – | – | – | – | – | – | – | – | approximately 100 fold | 0.1 µg/mL |
